T1: TT8-MBP (Arabidopsis thaliana, UniProt Q9FT81 1-518)
T1 sequence (looked up): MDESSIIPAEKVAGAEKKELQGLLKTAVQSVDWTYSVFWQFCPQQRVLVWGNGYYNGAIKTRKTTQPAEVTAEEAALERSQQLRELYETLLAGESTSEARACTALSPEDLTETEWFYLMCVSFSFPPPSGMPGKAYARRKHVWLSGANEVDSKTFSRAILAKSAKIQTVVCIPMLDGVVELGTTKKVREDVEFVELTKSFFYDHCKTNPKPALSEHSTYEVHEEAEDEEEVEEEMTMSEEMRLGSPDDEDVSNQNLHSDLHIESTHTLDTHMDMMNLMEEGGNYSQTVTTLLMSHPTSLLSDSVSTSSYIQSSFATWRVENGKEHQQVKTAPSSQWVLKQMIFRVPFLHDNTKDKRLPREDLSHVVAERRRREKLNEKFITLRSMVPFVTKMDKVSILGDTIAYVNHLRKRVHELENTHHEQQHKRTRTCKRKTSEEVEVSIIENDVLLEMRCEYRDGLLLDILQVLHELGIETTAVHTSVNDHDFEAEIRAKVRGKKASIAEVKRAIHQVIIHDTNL

T2: EGL3-MBP (Arabidopsis thaliana, UniProt Q9CAD0 1-596)
T2 sequence (looked up): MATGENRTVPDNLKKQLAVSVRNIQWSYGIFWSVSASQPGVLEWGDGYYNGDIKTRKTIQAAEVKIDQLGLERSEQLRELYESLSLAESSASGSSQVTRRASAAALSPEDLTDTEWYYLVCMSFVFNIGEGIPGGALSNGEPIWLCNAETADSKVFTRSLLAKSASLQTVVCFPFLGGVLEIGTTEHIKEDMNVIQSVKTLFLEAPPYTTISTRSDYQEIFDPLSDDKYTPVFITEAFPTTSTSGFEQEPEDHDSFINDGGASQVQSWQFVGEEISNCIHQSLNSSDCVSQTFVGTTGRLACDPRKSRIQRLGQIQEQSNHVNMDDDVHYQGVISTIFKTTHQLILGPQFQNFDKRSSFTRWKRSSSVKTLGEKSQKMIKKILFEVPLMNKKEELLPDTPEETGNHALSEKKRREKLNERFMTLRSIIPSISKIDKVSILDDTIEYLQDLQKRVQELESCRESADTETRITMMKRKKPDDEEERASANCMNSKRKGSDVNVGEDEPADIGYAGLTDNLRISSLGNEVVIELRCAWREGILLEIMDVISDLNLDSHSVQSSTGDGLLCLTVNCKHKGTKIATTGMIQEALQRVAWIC

T3: MBP-MYB75 (Arabidopsis thaliana, UniProt Q9FE25 1-248)
T3 sequence (looked up): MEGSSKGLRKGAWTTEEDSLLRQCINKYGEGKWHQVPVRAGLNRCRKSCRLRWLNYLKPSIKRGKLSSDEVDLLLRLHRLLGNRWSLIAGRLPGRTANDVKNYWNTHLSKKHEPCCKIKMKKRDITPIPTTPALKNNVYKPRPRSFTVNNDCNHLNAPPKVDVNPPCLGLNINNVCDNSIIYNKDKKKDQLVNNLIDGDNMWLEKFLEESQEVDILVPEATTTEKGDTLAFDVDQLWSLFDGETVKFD

B1: His-MYB75 (natural protein, Arabidopsis thaliana, UniProt Q9FE25 1-248, looked up)
chain: MEGSSKGLRKGAWTTEEDSLLRQCINKYGEGKWHQVPVRAGLNRCRKSCRLRWLNYLKPSIKRGKLSSDEVDLLLRLHRLLGNRWSLIAGRLPGRTANDVKNYWNTHLSKKHEPCCKIKMKKRDITPIPTTPALKNNVYKPRPRSFTVNNDCNHLNAPPKVDVNPPCLGLNINNVCDNSIIYNKDKKKDQLVNNLIDGDNMWLEKFLEESQEVDILVPEATTTEKGDTLAFDVDQLWSLFDGETVKFD

Experiments:
Experiment in all cases: pull-down
[1] = molecular target: T1, TT8-MBP
[2] = molecular target: T2, EGL3-MBP
[3] = molecular target: T3, MBP-MYB75
[4] = molecular target: B1

Binder | binding result [1] | binding result [2] | binding result [3] | binding result [4]
B1 | binds | binds | – | –
GST-MYB30^N (domain or fragment) not shown | – | – | binds | binds

From PMC10943538 (Plant Communications, 2023)
